Measurements reported in patent publication EP4682166A1 (Guangzhou Enmai Biotechnology Co., Ltd, dated 2026).
Where a chain is given by its changes, count along the chain named. In names and notes the source's numbering stands. Like-named read-outs stand apart in the source and are kept apart here.

T1: human NMI (N-myc Interacting protein), recombinant protein (human, UniProt Q13287 1-307, limits assumed)
T1 construct: Gene ID: 9111; also called hNMI; antigen
T1 sequence (looked up): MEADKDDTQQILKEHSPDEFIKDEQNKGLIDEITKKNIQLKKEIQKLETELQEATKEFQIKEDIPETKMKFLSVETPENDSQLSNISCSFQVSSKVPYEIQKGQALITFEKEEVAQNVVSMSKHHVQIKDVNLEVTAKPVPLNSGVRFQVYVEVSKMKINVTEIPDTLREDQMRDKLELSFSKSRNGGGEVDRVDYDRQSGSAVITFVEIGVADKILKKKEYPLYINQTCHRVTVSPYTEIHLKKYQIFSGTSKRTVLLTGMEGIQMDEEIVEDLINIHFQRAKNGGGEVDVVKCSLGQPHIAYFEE

B1: 240B10-1 mutant D27K (VH) (antibody, V domains shown)
VH: QSLEESGGRLVTPGGSLTLTCTVSGIKLSSYTMGWVRQAPGKGLEYIGIISGGGRTYYASWAKGRFTISKTSSTTVDLKVTSLTTEDTATYFCARIYTLWGQGTLVTVSS
VL: QVLTQTLASVSAAVGGTVTINCQSSQSVYNNDYLAWFQQKSGQPPKQLIHSASKLASGVPSRFKGSGSGTQFTLTINDVQCDDAATYYCLGGYDCYSADCNVFGGGTEVVVK
B2: 240B10-1 mutant G52R (VH) (antibody, V domains shown)
VH: B1 VH with K27D, G52R
VL: B1 VL
B3: 240B10-1 mutant N30T (VL) (antibody, V domains shown)
VH: B1 VH with K27D
VL: B1 VL with N30T
B4: 240B10-1 mutant N30E (VL) (antibody, V domains shown)
VH: B1 VH with K27D
VL: B1 VL with N30E
B5: 240B10-1 mutant G52E (VH) (antibody, V domains shown)
VH: B1 VH with K27D, G52E
VL: B1 VL
B6: 240B10-1 mutant D27P (VH) (antibody, V domains shown)
VH: B1 VH with K27P
VL: B1 VL
B7: 240B10-1 mutant S29Q (VH) (antibody, V domains shown)
VH: B1 VH with K27D, S29Q
VL: B1 VL
B8: 240B10-1 mutant G52K (VH) (antibody, V domains shown)
VH: B1 VH with K27D, G52K
VL: B1 VL
B9: 240B10-1 mutant S30A (VH) (antibody, V domains shown)
VH: B1 VH with K27D, S30A
VL: B1 VL
B10: 240B10-1 mutant S29D (VH) (antibody, V domains shown)
VH: B1 VH with K27D, S29D
VL: B1 VL
B11: 240B10-1 mutant S30K (VH) (antibody, V domains shown)
VH: B1 VH with K27D, S30K
VL: B1 VL
B12: 240B10-1 mutant G52Q (VH) (antibody, V domains shown)
VH: B1 VH with K27D, G52Q
VL: B1 VL
B13: 240B10-1 mutant S29E (VH) (antibody, V domains shown)
VH: B1 VH with K27D, S29E
VL: B1 VL
B14: 240B10-1 mutant S30E (VH) (antibody, V domains shown)
VH: B1 VH with K27D, S30E
VL: B1 VL
B15: 240B10-1 mutant S30D (VH) (antibody, V domains shown)
VH: B1 VH with K27D, S30D
VL: B1 VL
B16: 98G10-1 (mutated antibody of Table 17-7) (antibody, V domains shown)
VH: QEQLEESGGDLVKPEGSLTLTCTASGFSFSASYWICWVRQAPGKGLEWIACIYGGSSGSAYYASWAKGRFTISKTSSTTVTLQMTSLTAADTATYFCARAGYYNYGSAGDIYPSSFKLWGPGTLVTVSS
VL: DIVMTQTPASVEAAVGGTVTINCQASQSISTALAWYQQKPGQPPKLLIYTASKVASGVPSRFSGSGSGTQFTLTISDLEPADAATYYCQNYYYSSSSITFGGGTEVVVK
notes: also called 98G10 C80P (VL)
B17: 98G10-L-3 (antibody, V domains shown)
VH: B16 VH
VL: B16 VL with P80C, Y93Q
notes: also called 98G10 Y93Q (VL)
B18: 98G10-H-2 (antibody, V domains shown)
VH: B16 VH with W34Y
VL: B16 VL with P80C
notes: also called 98G10 W34Y (VH)
B19: 98G10-H-8 (antibody, V domains shown)
VH: B16 VH with W34D, Y112R
VL: B16 VL with P80C
notes: also called 98G10 W34D, Y112R (VH)
B20: 98G10-H-6 (antibody, V domains shown)
VH: B16 VH with Y112Q
VL: B16 VL with P80C
notes: also called 98G10 Y112Q (VH)
B21: 98G10-H-11 (antibody, V domains shown)
VH: B16 VH with W34H, Y112R
VL: B16 VL with P80C
notes: also called 98G10 W34H, Y112R (VH)
B22: 98G10-H-14 (antibody, V domains shown)
VH: B16 VH with W34D, Y112S
VL: B16 VL with P80C
notes: also called 98G10 W34D, Y112S (VH)
B23: 98G10-2 (antibody, V domains shown)
VH: B16 VH with T81Y
VL: B16 VL with P80C
notes: also called 98G10 T81Y (VH)
B24: 98G10-L-1 (antibody, V domains shown)
VH: B16 VH
VL: B16 VL with P80C, Y93R
notes: also called 98G10 Y93R (VL)
B25: 98G10-H-13 (antibody, V domains shown)
VH: B16 VH with W34K, Y112S
VL: B16 VL with P80C
notes: also called 98G10 W34K, Y112S (VH)
B26: 98G10-H-5 (antibody, V domains shown)
VH: B16 VH with Y112E
VL: B16 VL with P80C
notes: also called 98G10 Y112E (VH)
B27: 98G10-4 (antibody, V domains shown)
VH: B16 VH with T23K
VL: B16 VL
notes: also called 98G10 T23K (VH), C80P (VL)
B28: 98G10-H-12 (antibody, V domains shown)
VH: B16 VH with W34H, Y112S
VL: B16 VL with P80C
notes: also called 98G10 W34H, Y112S (VH)
B29: 98G10-H-1 (antibody, V domains shown)
VH: B16 VH with W34H
VL: B16 VL with P80C
notes: also called 98G10 W34H (VH)
B30: 98G10-H-7 (antibody, V domains shown)
VH: B16 VH with W34R, Y112R
VL: B16 VL with P80C
notes: also called 98G10 W34R, Y112R (VH)
B31: 98G10-3 (antibody, V domains shown)
VH: B16 VH with T81Y
VL: B16 VL
notes: also called 98G10 T81Y (VH), C80P (VL)
B32: 98G10-H-10 (antibody, V domains shown)
VH: B16 VH with W34T, Y112R
VL: B16 VL with P80C
notes: also called 98G10 W34T, Y112R (VH)
B33: 98G10-H-4 (antibody, V domains shown)
VH: B16 VH with Y112S
VL: B16 VL with P80C
notes: also called 98G10 Y112S (VH)
B34: 98G10-H-9 (antibody, V domains shown)
VH: B16 VH with W34H, Y112L
VL: B16 VL with P80C
notes: also called 98G10 W34H, Y112L (VH)
B35: 98G10-L-2 (antibody, V domains shown)
VH: B16 VH
VL: B16 VL with P80C, Y93S
notes: also called 98G10 Y93S (VL)
B36: 98G10-5 (antibody, V domains shown)
VH: B16 VH
VL: B16 VL with T18R
notes: also called 98G10 T18R/C80P (VL)
B37: 98G10-H-3 (antibody, V domains shown)
VH: B16 VH with Y112R
VL: B16 VL with P80C
notes: also called 98G10 Y112R (VH)

Assays:
[1] = biological target: T1, human NMI (N-myc Interacting protein), …; assay: ELISA EC50 against parent 240B10-1
[2] = biological target: T1, human NMI (N-myc Interacting protein), …; assay: ELISA, binding to hNMI
[3] = biological target: T1, human NMI (N-myc Interacting protein), …; assay: ELISA EC50 against parent 98G10
[4] = biological target: T1, human NMI (N-myc Interacting protein), …; assay: ELISA, binding to hNMI; remark: listed apart in the source
[5] = biological target: T1, human NMI (N-myc Interacting protein), …; assay: ELISA EC50 against parent 98G10; remark: listed apart in the source

| Binder | Fold decrease in affinity [1] [fold] | EC50 [4] [µg/mL] | Fold decrease in affinity [5] [fold] | also measured |
| --- | --- | --- | --- | --- |
| B1 | > 500 | – | – | – |
| B2 | > 500 | – | – | – |
| B3 | > 500 | – | – | – |
| B4 | > 500 | – | – | – |
| B5 | > 500 | – | – | – |
| B6 | > 500 | – | – | – |
| B7 | > 500 | – | – | – |
| B8 | > 500 | – | – | – |
| B9 | > 500 | – | – | – |
| B10 | > 500 | – | – | – |
| B11 | > 500 | – | – | – |
| B12 | > 500 | – | – | – |
| B13 | > 500 | – | – | – |
| B14 | > 500 | – | – | – |
| B15 | > 500 | – | – | – |
| B16 | – | – | – | EC50 [2]: 173 pM; Fold decrease in affinity [3]: 1.05 fold |
| B17 | – | 0.066 | 2.13 | – |
| B18 | – | 0.507 | 16.4 | – |
| B19 | – | 1.59 | 51.3 | – |

| Binder | Fold decrease in affinity [1] [fold] | EC50 [4] [µg/mL] | Fold decrease in affinity [5] [fold] | also measured |
| --- | --- | --- | --- | --- |
| B20 | – | 0.092 | 2.97 | – |
| B21 | – | 0.026 | 0.84 | – |
| B22 | – | 1.49 | 48.1 | – |
| B23 | – | – | – | EC50 [2]: 48.3 pM; Fold decrease in affinity [3]: 0.29 fold |
| B24 | – | 0.087 | 2.81 | – |
| B25 | – | 1.68 | 54.1 | – |
| B26 | – | 1.85 | 59.7 | – |
| B27 | – | – | – | EC50 [2]: 177 pM; Fold decrease in affinity [3]: 1.07 fold |
| B28 | – | 0.081 | 2.61 | – |
| B29 | – | 0.024 | 0.77 | – |
| B30 | – | 1.56 | 50.4 | – |
| B31 | – | – | – | EC50 [2]: 176 pM; Fold decrease in affinity [3]: 1.06 fold |
| B32 | – | 1.86 | 60 | – |
| B33 | – | 0.082 | 2.65 | – |
| B34 | – | 0.311 | 10 | – |
| B35 | – | 0.053 | 1.71 | – |
| B36 | – | – | – | EC50 [2]: 238 pM; Fold decrease in affinity [3]: 1.44 fold |
| B37 | – | 0.028 | 0.9 | – |
